Data reported in the RNAGym collection of RNA variant scans (doi:10.1073/pnas.2313332121).

B1: TPR t1 (parent)
chain: GACCAAUCUGCCCUCAGAGCUCGAGAACAUCUUCGGAUGCAGAGGAGGCAGGCUUCGGUGGCGCGAUAGCGCCAACGUCCUCAACCUCCAAUGCAUCCCACCACAUGAUGAUGCCUGAAGAGCCUUGGUUUUUUG

Variants of: B1
Experiment: polymerase ribozyme fitness, log enrichment relative to wild type (log ratio); higher = more active; in vitro selection for triplet polymerase activity
In short: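 Fitness measures genotype enrichment against wild-type enrichment on a logarithmic scale, with inverse-variance-weighted averaging of replicates. The logarithm is base 2, and genotypes were kept only with ≥10 input reads and ≥1 read per output in Illumina sequencing. The sequenced libraries came from one triplicate in vitro selection round, including frozen incubation at −7 °C, of PCR-built, transcribed mutant libraries of each subunit of a heterodimeric triplet polymerase ribozyme.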

| Variant | polymerase ribozyme fitness (log ratio) |
| --- | --- |
| G47U C73U | -1.42 |
| G47U G77U U106G | -3.7 |
| G47C U106A | -1.41 |
| G47U C102U C124A U129C | -2.98 |
| G47C U133G | -1.54 |
| G47U G71A C104U | -2.44 |
| G47C G52C C73U G120U C123A | -2.99 |
| G47U | -1.72 |
| G47C G113A | -2.47 |
| G47U A95U C101U C104A A111G C123G | -5.49 |
| G47U C56G G69C C76A A119G U129C | -7.91 |
| G47U U55G U116G | -3.9 |
| G47C G113C G127C | -3.94 |
| G47U G58C C73G C104U A121U | -5.16 |
| G47U C72G A90G | -1.68 |
| G47U G71C U126G | -3.65 |
| G47C G110C | -6.05 |
| G47C G110A | -3.26 |
| G47C G110U | -2.81 |
| G48A A66U | -2.3 |
| G47U G127U | -2.57 |

| Variant | polymerase ribozyme fitness (log ratio) |
| --- | --- |
| G47U G127A | -2.68 |
| G47U G71C C104A | -4.32 |
| G47U G51A G61U C79G G93A G113C C114G | -6.6 |
| G48A A50C A84G | -0.336 |
| G47C G69U A90C C104U | -1.9 |
| G47U U116A | -3.64 |
| G47C G63U C102A U112C G113U | -7.27 |
| G47U G113U | -3.52 |
| G47U G113C | -2.7 |
| G47U C85G A111C | -2.87 |
| G47U U116G C124U | -2.14 |
| G47C U81G | -3.84 |
| G47C G120C G122A G128U | -3.66 |
| G47U C102U | -3.31 |
| G47U U78G U96A | -1.79 |
| G48A A103G G110U | -6.26 |
| G47U G60U U116C U131A U132C | -1.54 |
| G47U U59C C97U G110C A121G U126C | -6.2 |
| G48A A100U C101U G117A C123A | -3.72 |
| G48A C53G U55C C56A | -0.815 |
| G47U U55A C70U C94G | -4.62 |

| Variant | polymerase ribozyme fitness (log ratio) |
| --- | --- |
| G47U C53G U96G C104U A118G C124U | -1.59 |
| G47U G71C | -2.44 |
| G47U G71U | -2.23 |
| G47U A111C | -3.27 |
| G47U A111U | -3.66 |
| G47U A111G | -0.984 |
| G47U U81A | -3.01 |
| G47U C49G C62U C88A A95C C123A | -4.59 |
| G47U C88A | -6.05 |
| G47U G61A | -0.861 |
| G47C G48U | -2.71 |
| G47U C79G A100G C114G | -6.83 |
| G48A A75U C79G A90U A95C G120A U129G | -6.14 |
| G47U C85U C97A C124G | -4.97 |
| G47U G63A A111G G120A | -3.58 |
| G47U G61C A90U G117C | -6.8 |
| G48A A111C | -0.446 |
| G48A A111G | -0.578 |
| G47U C64A | -6.47 |
| G47C G52C A68U U109A | -7.13 |
| G48A C56A | -1.1 |

| Variant | polymerase ribozyme fitness (log ratio) |
| --- | --- |
| G47U C97A | -5.54 |
| G47C G77U A100U | -1.79 |
| G48A A95G U116G | -1.38 |
| G47C U81G G93A C101U | -5.71 |
| G47U G69A | -4.35 |
| G47U G60A C86A C89U | -0.955 |
| G47C U55G C72G U106A U129A G135C | -2.99 |
| G47U C56U U116C | -2.14 |
| G47U G52A C72U | -2.43 |
| G47C G61U C114U | -3.31 |
| G47U C80U C124A U131G G135A | -0.0494 |
| G47U U92A | -5.48 |
| G47U C72A | -0.885 |
| G47U C72G | -2.79 |
| G47U C86G | -0.954 |
| G47U A66C C115U U130A G135A | -5.53 |
| G47U G69U U131A | -1.3 |
| G47U C123U | -0.404 |
| G47C G63U A90U | -5.15 |
| G47U C62U G71U C82A A95U | -3.36 |
